From patent CN108948202A (BOAOXIN BIOTECHNOLOGY NANJING CO LTD, dated 2018)

Assays:
[1] = target: T1, 重组人PD1带his标签的蛋白 (Sino biological inc., cat#10377-H08H) (human, UniProt Q15116 25-167); assay: ELISA, hybridoma supernatant on coated human PD1-his
T1 construct: Detection antigen for serum titres and hybridoma screening; also called 人PD1-his蛋白抗原; PD1-his; not shown: his tag

生物素标记人PD1-Fc蛋白 = target: T2, 生物素标记人PD1-Fc蛋白 (human, UniProt Q15116 25-167, limits assumed, biotin-labelled (site not stated)); assay: capture ELISA: antibody captured by anti-mouse IgG Fc, 60 nM biotinylated human PD1-Fc
T2 construct: also called PD1Fc biotin; 人PD1抗原; not shown: Fc part
T2 sequence (Q15116 25-167 limits assumed): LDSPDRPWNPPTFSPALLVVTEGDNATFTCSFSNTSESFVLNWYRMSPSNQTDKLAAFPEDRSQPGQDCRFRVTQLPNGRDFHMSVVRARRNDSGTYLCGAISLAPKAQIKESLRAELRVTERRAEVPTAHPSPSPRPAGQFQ

T1 sequence (Q15116 25-167 limits assumed): as above

binding result [1]: binds
binding result (生物素标记人PD1-Fc蛋白): binds
B1: D2G3 抗人PD1小鼠单克隆抗体 (antibody, V domains shown)
VH: QEQLKQSGPGLVAPSQTLSITCTVSGFSLESYGVDWVRQSPGKGLEWLGVIWGSGSTSYNSGLKSRLSISKDNSKKQVFLEMKSLQTDDTAMYYCAIDGGFASWGQGTLVTVSA
VL: DIVMTQAAPSVPVTPGESVSISCRSSKSLLHSNGNTYLYWFLQRPGQSPQRLIYYMSNLASGVPDRFSGRGSGTDFTLRISRVEAEDVGVYYCMQSLEYPYTFGGGTKLEIK
notes: Tested as a mouse monoclonal antibody from a hybridoma (supernatant or small-scale purified); also called D2G3抗体; 本发明的抗人PD1单克隆抗体
